Biological target: T1, Native human platelet thrombospondin-1 (human, UniProt P07996 19-1170)
T1 construct: thrombospondin-1 (TSP1), human, native protein from platelets; also called TSP1; native human TSP1; source: bought: Cell Sciences Inc. (Cat. No. CSL19832A), native from human platelets
Test: ELISA; solid-phase binding: PDIA3/ERp57 or CCN2 coated at various concentrations on Immulon 2Hb wells in TBS with 2 mM CaCl2 and 15 µM ZnSO4, 16 h at 4°C; blocked with 5% BSA; 50 µg/mL (388 µM as printed) native human TSP1 added for 1 h at room temperature; detected with anti-TSP1 (C9) and anti-mouse-IgG-HRP, absorbance at 450 nm
Conditions: both partners purified

T1 sequence (P07996 19-1170): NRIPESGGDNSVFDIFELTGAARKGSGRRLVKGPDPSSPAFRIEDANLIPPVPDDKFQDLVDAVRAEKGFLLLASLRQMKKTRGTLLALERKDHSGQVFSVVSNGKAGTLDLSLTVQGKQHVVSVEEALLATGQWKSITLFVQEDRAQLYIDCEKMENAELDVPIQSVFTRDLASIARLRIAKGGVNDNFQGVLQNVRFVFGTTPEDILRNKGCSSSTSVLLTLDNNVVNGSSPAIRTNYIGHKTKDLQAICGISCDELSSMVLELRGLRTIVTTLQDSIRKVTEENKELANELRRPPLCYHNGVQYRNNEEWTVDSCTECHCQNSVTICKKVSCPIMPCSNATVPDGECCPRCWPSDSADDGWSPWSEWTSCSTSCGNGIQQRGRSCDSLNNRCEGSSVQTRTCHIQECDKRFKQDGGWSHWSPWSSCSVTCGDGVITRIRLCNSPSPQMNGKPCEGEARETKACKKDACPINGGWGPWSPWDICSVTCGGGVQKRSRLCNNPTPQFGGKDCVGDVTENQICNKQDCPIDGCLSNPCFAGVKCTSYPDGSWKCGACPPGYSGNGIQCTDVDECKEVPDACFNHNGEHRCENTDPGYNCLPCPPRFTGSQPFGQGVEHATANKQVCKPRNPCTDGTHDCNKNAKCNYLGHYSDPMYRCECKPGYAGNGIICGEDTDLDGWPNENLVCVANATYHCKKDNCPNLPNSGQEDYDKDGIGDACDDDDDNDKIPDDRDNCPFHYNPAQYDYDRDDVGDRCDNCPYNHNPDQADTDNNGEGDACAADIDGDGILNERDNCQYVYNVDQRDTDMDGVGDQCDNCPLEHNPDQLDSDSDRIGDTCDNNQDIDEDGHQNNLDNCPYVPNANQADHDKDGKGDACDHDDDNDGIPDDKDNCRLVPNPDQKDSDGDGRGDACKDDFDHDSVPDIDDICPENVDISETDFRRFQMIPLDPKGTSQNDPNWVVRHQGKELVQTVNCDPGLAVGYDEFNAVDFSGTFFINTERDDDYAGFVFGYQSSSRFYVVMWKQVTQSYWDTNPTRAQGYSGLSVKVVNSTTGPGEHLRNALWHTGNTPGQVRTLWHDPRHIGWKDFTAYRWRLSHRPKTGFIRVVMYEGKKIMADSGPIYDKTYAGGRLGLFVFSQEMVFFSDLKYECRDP

binding result | Binder
binds | Recombinant human CCN2 (natural protein, UniProt P29279 27-349, looked up, cell communication network 2 (CCN2/CTGF), human, recombinant; Limits, host and tags are told only by the supplier's data sheet; also called cell communication network 2; CTGF; source: bought: R&D (Cat. No. 9190-CC-050)) QNCSGPCRCPDEPAPRCPAGVSLVLDGCGCCRVCAKQLGELCTERDPCDPHKGLFCHFGSPANRKIGVCTAKDGAPCIFGGTVYRSGESFQSSCKYQCTCLDGAVGCMPLCSMDVRLPSPDCPFPRRVKLPGKCCEEWVCDEPKDQTVVGPALAAYRLEDTFGPDPTMIRANCLVQTTEWSACSKTCGMGISTRVTNDNASCRLEKQSRLCMVRPCEADLEENIKKGKKCIRTPKISKPIKFELSGCTSMKTYRAKFCGVCTDGRCCTPHRTTTLPVEFKCPDGEVMKKNMMFIKTCACHYNCPGDNDIFESLYYRKMYGDMA
binds | Recombinant human PDIA3/ERp57 (enzyme, UniProt P30101 25-505, looked up, protein disulfide isomerase A3 (PDIA3/ERp57), human, recombinant; Limits, host and tags are told only by the supplier's data sheet; source: bought: Abcam (Cat. No. ab92937)) SDVLELTDDNFESRISDTGSAGLMLVEFFAPWCGHCKRLAPEYEAAATRLKGIVPLAKVDCTANTNTCNKYGVSGYPTLKIFRDGEEAGAYDGPRTADGIVSHLKKQAGPASVPLRTEEEFKKFISDKDASIVGFFDDSFSEAHSEFLKAASNLRDNYRFAHTNVESLVNEYDDNGEGIILFRPSHLTNKFEDKTVAYTEQKMTSGKIKKFIQENIFGICPHMTEDNKDLIQGKDLLIAYYDVDYEKNAKGSNYWRNRVMMVAKKFLDAGHKLNFAVASRKTFSHELSDFGLESTAGEIPVVAIRTAKGEKFVMQEEFSRDGKALERFLQDYFDGNLKRYLKSEPIPESNDGPVKVVVAENFDEIVNNENKDVLIEFYAPWCGHCKNLEPKYKELGEKLSKDPNIVIAKMDATANDVPSPYEVRGFPTIYFSPANKKLNPKKYEGGRELSDFISYLQREATNPPVIQEEKPKKKKKAQEDL

From paper PMC8977143, “PDIA3/ERp57 promotes a matrix-rich secretome that stimulates fibroblast adhesion through CCN2” (American Journal of Physiology - Cell Physiology, 2022)
